Results: article PMC3913574

Target: T1, recombinant CADM1-EC-Fc protein consisting of the extracellular fragment domain of CADM1 fused to the Fc region of mouse IgG (UniProt Q9BY67)
T1 sequence: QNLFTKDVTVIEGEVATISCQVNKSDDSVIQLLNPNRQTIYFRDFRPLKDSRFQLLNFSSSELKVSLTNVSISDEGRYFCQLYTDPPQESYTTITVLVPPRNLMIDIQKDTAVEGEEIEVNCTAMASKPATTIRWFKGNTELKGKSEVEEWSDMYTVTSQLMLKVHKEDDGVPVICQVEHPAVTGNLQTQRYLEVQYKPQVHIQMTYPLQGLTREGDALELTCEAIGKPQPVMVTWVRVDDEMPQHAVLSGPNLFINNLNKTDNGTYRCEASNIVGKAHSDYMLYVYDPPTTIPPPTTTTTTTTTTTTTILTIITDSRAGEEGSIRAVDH

cell spreading assay: average surface area of MDCK+CADM1-GFP cells on CADM1-EC-Fc-coated glass against the same cells on control IgG: 1.8 fold
B1: CADM1-GFP on MDCK cells (MDCK+CADM1-GFP) (natural protein)
chain: QNLFTKDVTVIEGEVATISCQVNKSDDSVIQLLNPNRQTIYFRDFRPLKDSRFQLLNFSSSELKVSLTNVSISDEGRYFCQLYTDPPQESYTTITVLVPPRNLMIDIQKDTAVEGEEIEVNCTAMASKPATTIRWFKGNTELKGKSEVEEWSDMYTVTSQLMLKVHKEDDGVPVICQVEHPAVTGNLQTQRYLEVQYKPQVHIQMTYPLQGLTREGDALELTCEAIGKPQPVMVTWVRVDDEMPQHAVLSGPNLFINNLNKTDNGTYRCEASNIVGKAHSDYMLYVYDPPTTIPPPTTTTTTTTTTTTTILTIITDSRAGEEGSIRAVDHAVIGGVVAVVVFAMLCLLIILGRYFARHKGTYFTHEAKGADDAADADTAIINAEGGQNNSEEKKEYFI
